Laboratory results as given in the domain aggregation screens of Martell et al. (2025).

Experiment: soluble fraction after stress (log2 fold change); higher = more stays soluble; pooled small domains, quantitative proteomics
Settings: stress: pH 4
In short: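 Aggregation propensity is read out as the fold change in how much of each domain remains soluble after acid stress. The custom small-domain libraries were pooled, held at pH 4 and analysed with high-throughput quantitative proteomics. On the log2 scale used, higher values mean more of the domain stayed soluble.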

| Sequence | soluble fraction (log2) |
| --- | --- |
| HMKPFSLESYKAFVVKRLGLFPETSSAQMHDWLKEEYPDFPLITPRTVYNFVMKIRQDYGIAKV | -0.732 |
| HMKTLKHYFASIAHEFGREEAELMLLSVFKTPFEQRLMLFMKDPALTEAQVQQLDNLVRQRKQGVPLPYIL | -0.287 |
| HMIAASPVGGIDRVLELLDARGQRVAWIEASGTEGGQRLRLGWIDAQGAERHGAWVPWSADDLLLYA | -0.547 |
| HMFIMQTVALGSEGPDVRALQSILNRIGYNAGTVDGIFGSRTRQAVIAFQRNNGLAADGVAGPATWG | -0.0509 |
| HMDRDMGSMTDFENVRDAYLTGKVWNVGDLIEANGITGIIIRKGTNYVSYNDGDGKVHKAWLHDITL | -0.98 |
| HMDPIATLTPREREVLSLMAEGRSNGAIAAALVVGDGAVEKHVSNIFQKLELTPAEGDHRRVLAVLRWLE | -0.864 |
| HMDPGPVLISAQVLDDLEAIRRDGSSNMLDWPAVARLAEVMGMDRTAAWVRTHHREYSAGIFRGFASD | -0.744 |
| HMKSVFQPIYEDLLSRIQDGRLLPGMPLPSENALAVQYGTSRPTIRRAIGLLVEKSLVIRQPGIGSIVAS | -0.493 |
| HMAARLMRALIPYAQGGLLAKLHEDGQVLSEEYTGEGIEVKALADEQLFGRLTVQLGEQAVSWQD | -0.205 |
| HMDSLARKTVNGAEFYIYPVESAEGFYSLRRKFGVSQEEVIKYNPSAQNGLKSGQVLLIPVT | 0.125 |
| HMDLSPEQAELAAIRGELGIKIDDYALALNIPRDRLTSYLYGRANVPAEVLISARELRYASSA | -0.128 |
| HMLDEKFLSELMLALLRNHRRGLRAEVLLHKVRSNMELDGYKSLLVGVGRMEMWELAREIIDFVKAEG | -2.07 |
| HMTTKYVAVHESKDGYWTIASKPSSKEDAEAMLGGTPKNEVGKVVTLEEAKAHKKTLGEEYLYE | ≥ 0.43 |
| HMADEIMYPVQVNGKVRAEIFVAADQSKNKELVLEMAKSEERVQKYLEEGNLIKEIFVPGRIVNLVI | -0.269 |
| HMDFFVLVGAYKTPDEAETIRAKIAFSGLDSSVSHGNDGRYRVRIGPFHSEGDARKAQSTLRANDIPGQII | 0.18 |
| HMFDITKEVLKQSGLYNLYKNDESLEGINRIQNIEELLNGIKDFVENNEKSQASVSSFLQDVALATDQ | -0.217 |
| HMGKVNTRNRNEGKFYKNGKKKPANWEYRFEAAPVNGKRQQISDAGYPTEKAAYEAGIAAYEKYNSAGSVN | 0.0128 |
| HMVEPIEESISQLSLLLQSLYEDGKSEVSFEELIRSDRSRVSLFLALLFMAQRGNVYLEQEELFGDLRVKN | -0.4 |
| HMDSKPNDLLFVYVSQLIRSLTLNSSKKDSELADELEVSISQIRIWLKKLINEQLIVKESKPVKYRWKG | -0.327 |
| HMKMSLKENLLELLQKSSGEFLSGERAAETLGVSRTAVWKAVTSLKNEGYNIESVTNRGYRFS | 0.395 |
| HMPPPVDLDKKGYKLRGIVLEDGRSAAFVFVPAEKRVVVLRENASGPVRLLETGMRRIRLQTPEGAGYLEL | -0.259 |
| HMPRNEIQRSVLNELVQWIKNNLAKKLTMQALSRFSGYSEWHLFRLFRHYFNMSPMAYIRQQRMQ | -0.359 |
| HMAARKDLIAGEDAEGRLDAWLAAALDGEFSRNRVKALIEQGAVAINDVAVTEPKRKIRPGDRLSIVLPEP | 0.248 |
| HMLAIKKGGIFAILGPNGSGKSTFSKVLAGHPAYTVVDGDIFFKGLSILDLEPEERSHLGIFLAFQ | -0.151 |
| HMSRPLISNMLRLLNLPPTVQRKVAAGVISAGHARALLGLNDEKEIEKLANRIVAEGLSVRATEEIVAIA | -1.28 |

| Sequence | soluble fraction (log2) |
| --- | --- |
| HMSTSRAEIIAFLKSNPSSEYKHELETKLDEMDWAEAVKGNSEESFLAYKQRQPNGTHNGEADEKLKVLLV | -0.171 |
| HMGSIMIIVLKENAPQQAAEKLMKEIRAKGLQIDVSKGTRKTVLGLVGDTSVIDMEHVQGYDYVDKVLRV | -0.674 |
| HMSLEDMILSLSSRIRRGESLHFRELLVAIETKSGMVTIFMAVLELLKQQVMEMRYEDDDIIFT | -0.567 |
| HMTESFEFTMNDLVQNNLIMGSGAKERRIAVGEALGIGYTNAKQFLSRLNHYGITRKEFDDEIEKVNQN | -0.217 |
| HMSKFSDTLVYLRKRAGFSQQELADKMEVSRSLVGMYESGQRMPSYEMLEALADIFNVNIDFLTGH | -0.586 |
| HMPSEAVQNIIGNVKSKRRVATIGQARGLASNVIKEGKFDNVSNTAMVNRLIDLGIISNSIGYQ | 0.283 |
| HMTYSSESVRYRIKSLIDNETIDEILSDDKIVNILKSQGIDVARRTVAKYREAMGLASSIQRRREKKSA | -0.0241 |
| HMKLIPLTDMRGQLRSGAPLPWGVRDAQGNLLLGKGHVIASDDMLEALLARGMFVDAEEAKAARG | 0.105 |
| HMHMHTADDFKQLAKHTSNGRLRTRYLALYHFKKGETRTQIAAYLGVARGSVNTWVSNYLAYGLEGLQS | -0.0479 |
| HMEHIDVSGRAFDVSVSRLKRARRLTMRIDTHKQLVKISAPLHVESSTIRAFLARNQNWLEQQVEKR | 0.199 |
| HMQAPIFMNETDGKWYFREKYLNDNHEIAYRVHPEGYDQMEDALRNSVNALNEFAAEMKELRKQV | -0.64 |
| HMDYKSNLQEMVQTTKKSVTYELVKEEGPAHDRTFTMNVIVDGIVLGTGTAKSKKEAEQEAAHQALEKKA | -0.0453 |
| HMSAQQTFLRDAMRRLNMTRDSFAERIGVRRRALDTWLLPEDSSEYRTMPSIVEKFVGEILGREA | 0.112 |
| HMNGKWKLRIIKELLHSNIRFGQILKNIPDISPKVLSQQLKEMEEDGIIERIVISEMPPNVEYVLTDMGE | -0.458 |
| HMITIDADTGKRVYTRKEVADLVGASTQSIRLWEDAGAIPASVRDEGGYRYWYEEDLEAIKAYAS | -0.411 |
| HMSFMPDPSIHDAITYTVRSGDYLGKISTTFGVKVSDLQKWNSIKSNIIYPGQKLTVWVSSNKRESLQ | 0.194 |
| HMLKLTDRQKVILSILMSDGEKTASWIASQLGVGLRSVQLDLSYLRNNGFIKKASKSTHSAWIVLKK | 0.205 |
| HMNYTQAQIDRANAVSLEDFLRTQGETLIKSGREYRWKEHDSLTVRGNKWFRHSQSKGGYPIDFVMEFTA | -0.0561 |
| HMGGKTAVVTGSLVNVRKGPGTGNALVGQVARGDELPVLGQDGDWYQIKLANGSNGWVAGWLVSLKDAVP | -0.112 |
| HMENHILIIDDDLMLLKTAEEILSDQYNVSVAKSGIQALNLLNKNIIPDLILLDIDMPQMDGYETL | -0.554 |
| HMYHIYPVADNDTPKLSADRLEYSLSNALLTNKLLNIDEIKKIYNDVILDKDEDGTLELSFKS | 0.167 |
| HMATPKRGFRKQLAPLVQSGTITREEAGELSRSSGDATALRTKIGELMKAGKLTRKEAGELYSDAFPENA | 0.0387 |
| HMSKPLEVFKLTSEPFGFSFNTALGRSYTVEATGDLGVWKAVELFQGSGGEIRFTAKPTSSGGAQFFRVFV | -0.225 |
| HMGEIHAQIPGLVSHLFVKEGNTVQVEQKLFILEAMKMENEIDSPIQGTVKRIHIATGSKVEKGDLIMEIS | -0.117 |
| HMTLVSALDQKTKDSAYYRGTYLAGKISAGKMTKQEAVADIMKNYDGNTAAMKVAAEKAGVSDLLSQTVL | 0.0773 |

| Sequence | soluble fraction (log2) |
| --- | --- |
| HMTRPLVILEDVKFPSYNEIVSLTLPDGTRRGGQVLEVSGNKAIVQVFEGTSGIDVKDTHIELTKSS | 0.0449 |
| HMNEDFSEIIAAVKKFAVDNLSLSTLSDEELEEQIKTITDNMIGNRYVSIKNRVDIAQQVFSSIR | -0.435 |
| HMENPVPVIITDQNFQPLLWKNVGVPTDTIFHELSPENQKKLENLMKTMVQMPLTDDGRISGYAYYSK | 0.149 |
| HMESDRVAHVVAPGETLFSISGKYGIGMGELVAANPVLESRPPRTGDTLLIRLPENPLPAETDAETLS | -0.858 |
| HMEFENIEQRKQYWSDLYRELKAGQDAYAKELKKGTEGYTQDELDILKEFTDEAKKQMEAAGVEATDEFAS | -0.176 |
| HMEEINTAPVFKNIIEIAEYAKTKFTTVEEIPKMIEFIETANSKLDNPHDEESVNELINALSTNIRKNV | -0.554 |
| HMNADLDIQNVNGNTPLWEAVMRYRGDGFFIEQLLKNGANPDIKNNYGVSPKSLARTIANYDVRRFFN | -0.333 |
| HMQPIEIQDRITKAFERSAALEAKNINVEVDGHTVKLTGTVHSLTEKEEARKAAFFAPGVTKVENHLIVDY | -0.0498 |
| HMGATFITSSKDNAINIRQAAGTDSKVIETIKNGHILESSEKSGEWYKVTYYDSDIKKTFTGYIHNSQLK | -0.162 |
| HMEPEDVIAMERYLASGAIKGIGVTLAGRIIKKFQKETFHIIEEEPERLSEVKGISEKLAREIYQQFTQK | -0.187 |
| HMVVNERIKKLRRSLDLTQQEFADRIGVKRNTIANYEIGRNEPIDSVLELIVREFGVSKQWLLDGTGEMF | 0.0586 |
| HMRRSLIGPTVRERRRALGITQSRLAAEVGISASYLNLIEGDKRNIGGALLQRIAGALGLALD | 0.0185 |
| HMNVAETITLGKRLFNHALTILGKKQRNISRKQLKNFLNDLGLKDSKDLYESIGTGDKNPILMAQLLLG | -0.0687 |
| HMSANVSMEEALRRTSQAHSLAGKWMRRVLQMAQGRDLIEQMQREAQEAHLPELIGMSVQLEFIRRG | -0.363 |
| HMSRGAIVTGTVIEKNQSGIYVDLGYKSDGIVPIEEFDGEESKYNVGDQIRVYVKKVDDGHGQLML | -0.135 |
| HMEAGLRMPEQLTAFSALALLQKVRDSGPLTDAQKEQLDADVLRIEASHFGKADREALELEEILKQWLSRV | -0.889 |
| HMAIELIDLIKNPETAPFSKLKYLKWMPEAEVTGFFNNLFQLNVTARETGDWSTVDKFLEDEGDRIAAQVA | -0.215 |
| HMKEEVMVPNVVGKELSAALLEMQVKELYPKLQLKYSNFVDDKGTVLEQSPPAGSIVKAGRRINLVVSRGA | 0.0708 |
| HMIGRRLKVARASAGLSLRELAARMDGVVTPQAIGKYERNEDMPGSRALMALASALGVSEGYLLSD | -0.0156 |
| HMQDEAQLSMSNKYIFEGNSIVKDNFIEAEKKYRLGVSAKPNNAVGSYNLANAYYNSKLYDEAMLRLL | -0.179 |
| HMYDASELNKALEEAKKLDLNNYTEESSEALKNAISKAEEALLSKDKETINSALEELNKAMDSL | -0.615 |
| HMGGDFVEHLKDLASEAPVIRLVNTIIGRVIDLRASDIHLEPFDDGLHVRYRVDGVIHPGELVPPRLS | -0.249 |
| HMKTILEKDQRLAKYISYLIKRKRLSPEQVIEHLKTDDHGYEKYPKSINTIYAAIDKGLIPSVTRQDM | ≥ 0.43 |
| HMLTAPMPGIVTEILVKEGQRVRSGQPLMILEAMKMEHQVTAPKSGQIEKIYFSEGEKVDMGSDLLSIS | -0.0146 |
| HMDYGTATASAILYLEKIDPENPYLLLAKDTITTNPKMSVNFALKGIIESKKGEKEENLNKALEIMSSL | 0.0949 |
